*1 amine or outer side, *2 acyl side, *3 side chain or, on linkers, in order; H or OH if unused. Bridges are numbered along the chain shown (N, C = ends). Where no end group is shown, it is not given here. [ ]: non-standard residue; d: D form. TATA = O=C(CC[*:1])N1CN(C(=O)CC[*:2])CN(C(=O)CC[*:3])C1; βAla = NCCC(=O)O; Sar = CNCC(=O)O
B1: Compound 69 (peptide)
peptide: AXDCPLVNPLCLHPGWTCA
modifications: not fully specified; N-terminal Ac; HArg; C-terminal -Sar6-(D-K); TATA scaffold on the 3 Cys
B2: Compound 89 (peptide)
peptide: [βAla][Sar][Sar][Sar][Sar][Sar][Sar][Sar][Sar][Sar][Sar]ACPLVNPLCLHPGWSCRGQ
modifications: linker 13-20-27 via TATA; not fully specified (C-terminus); printed as (β-Ala)-Sar10-ACPLVNPLCLHPGWSCRGQ
B3: Compound 78 (peptide)
peptide: CPLVNPLCLHPGWTCLXG
modifications: not fully specified; N-terminal Ac; D-His; C-terminal -Sar6-(D-K); TATA scaffold on the 3 Cys
B4: Compound 92 (peptide)
peptide: CPLVNPLCLHPGWSCXGQ
modifications: not fully specified; N-terminal Ac; HArg; C-terminal -Sar6-(D-K); TATA scaffold on the 3 Cys
B5: Compound 76 (peptide)
peptide: ACPLVNPLCLHPGWTCLXG
modifications: not fully specified; N-terminal (β-Ala)-Sar10; D-His; TATA scaffold on the 3 Cys
B6: Compound 68 (peptide)
peptide: Ac-ARDCPLVNPLCLHPGWTCA
modifications: linker 4-11-18 via TATA; not fully specified (C-terminus); printed as Ac-ARDCPLVNPLCLHPGWTCA-Sar6-(D-K)
B7: BCY6031 (peptide)
peptide: AXDCPLVNPLCLHPGWTC
modifications: not fully specified; N-terminal (β-Ala)-Sar10 spacer precedes SEQ ID NO: 11; HArg (homoarginine) at residue 2 of SEQ ID NO: 11; three Cys cyclised on the TATA scaffold; DM1-SS- (DM1-SPDB) on the N-terminal amine
B8: BCY6034 (peptide)
peptide: AXDCPLVNPLCLHPGWTC
modifications: not fully specified; N-terminal (β-Ala)-Sar10 spacer precedes SEQ ID NO: 11; HArg (homoarginine) at residue 2 of SEQ ID NO: 11; three Cys cyclised on the TATA scaffold; TrpCit-MMAE (MMAE-PABC-Cit-Trp-glutarate) on the N-terminal amine
B9: BCY6032 (peptide)
peptide: AXDCPLVNPLCLHPGWTC
modifications: not fully specified; N-terminal (β-Ala)-Sar10 spacer precedes SEQ ID NO: 11; HArg (homoarginine) at residue 2 of SEQ ID NO: 11; three Cys cyclised on the TATA scaffold; DM1-SS-(Me)- (DM1-SPP) on the N-terminal amine
B10: BCY6026 (peptide)
peptide: ACPLVNPLCLHPGWSCRGQ
modifications: linker 2-9-16 via TATA
notes: Bicyclic peptide on a TATA scaffold, no toxin; Made on Rink amide resin; also called Compound 87; Bicycle Compound Number 87
B11: BCY6063 (peptide)
peptide: AXDCPLVNPLCLHPGWTC
modifications: not fully specified; as BCY6014 (N-terminal (β-Ala)-Sar10; HArg; TATA scaffold on the 3 Cys) + Non-cleavable (MMAE)
notes: Bicycle drug conjugate (BDC)
B12: BCY6034 (peptide)
peptide: AXDCPLVNPLCLHPGWTC
modifications: not fully specified; as BCY6014 (N-terminal (β-Ala)-Sar10; HArg; TATA scaffold on the 3 Cys) + TrpCit-MMAE
notes: Bicycle drug conjugate (BDC)
B13: BCY6062 (peptide)
peptide: AXDCPLVNPLCLHPGWTC
modifications: not fully specified; as BCY6014 (N-terminal (β-Ala)-Sar10; HArg; TATA scaffold on the 3 Cys) + D-TrpCit-MMAE
notes: Bicycle drug conjugate (BDC)
B14: BCY6064 (peptide)
peptide: AXDCPLVNPLCLHPGWTC
modifications: not fully specified; as BCY6014 (N-terminal (β-Ala)-Sar10; HArg; TATA scaffold on the 3 Cys) + Non-cleavable (DM1)
notes: Bicycle drug conjugate (BDC)
B15: BCY6077 (peptide)
peptide: AXDCPLVNPLCLHPGWTC
modifications: not fully specified; as BCY6014 (N-terminal (β-Ala)-Sar10; HArg; TATA scaffold on the 3 Cys) + DM1-SS-(Me)-SO3H-
notes: Bicycle drug conjugate (BDC)

These binders were tested against T1, Human EphA2 (Ecto), C-terminal polyHis (Human, UniProt P29317 24-537) (assay: FP competition vs Reference Compound C).
T1 construct: extracellular domain; R&D systems 3035-A2 or in-house
T1 sequence (P29317 24-537): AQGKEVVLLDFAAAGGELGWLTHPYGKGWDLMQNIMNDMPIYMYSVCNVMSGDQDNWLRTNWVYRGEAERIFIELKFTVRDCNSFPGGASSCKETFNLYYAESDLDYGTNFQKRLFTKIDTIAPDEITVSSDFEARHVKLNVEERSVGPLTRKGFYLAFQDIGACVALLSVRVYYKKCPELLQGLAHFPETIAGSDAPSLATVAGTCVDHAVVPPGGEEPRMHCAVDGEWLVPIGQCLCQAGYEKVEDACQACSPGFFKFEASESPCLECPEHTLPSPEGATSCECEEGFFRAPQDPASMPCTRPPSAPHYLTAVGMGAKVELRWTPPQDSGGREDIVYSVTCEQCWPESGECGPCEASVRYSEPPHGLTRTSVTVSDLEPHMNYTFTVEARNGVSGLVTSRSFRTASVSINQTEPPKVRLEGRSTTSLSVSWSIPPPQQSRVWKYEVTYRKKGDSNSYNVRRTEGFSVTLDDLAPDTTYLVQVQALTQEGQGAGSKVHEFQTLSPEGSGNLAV

Point of comparison: AXDCPLVNPLCLHPGWTC (N-terminal (β-Ala)-Sar10; HArg; TATA scaffold on the 3 Cys, also called Compound 67) [BCY6014], Ki 8.51 nM. Against it:
- B1 — 2.1-fold higher, 17.5 nM
- ACPLVNPLCLHPGWSCXGQ (not fully specified; N-terminal (β-Ala)-Sar10; HArg; TATA scaffold on the 3 Cys) [Compound 90] — 1.6-fold lower, 5.41 nM
- CPLVNPLCLHPGWTCLHG (N-terminal Ac; C-terminal -Sar6-(D-K); TATA scaffold on the 3 Cys, also called Compound 77) [BCY6019] — 1.6-fold lower, 5.41 nM
- ACPLVNPLCLHPGWSCRGQ (linker 2-9-16 via TATA, also called Compound 87) — 3.3-fold lower, 2.57 nM
- B2 — 3-fold lower, 2.86 nM
- B3 — 1.8-fold higher, 15.6 nM
- B4 — within 1.5-fold, 10.6 nM
- ARDCPLVNPLCLHPGWTCA (linker 4-11-18 via TATA; not fully specified (C-terminus)) [Compound 65] — within 1.5-fold, 6.05 nM
- CPLVNPLCLHPGWSCRGQ (N-terminal Ac; C-terminal -Sar6-(D-K); TATA scaffold on the 3 Cys, also called Compound 91) [BCY6042] — within 1.5-fold, 5.98 nM
- B5 — within 1.5-fold, 10 nM
- B6 — 2.3-fold higher, 19.3 nM

These binders were tested against T2, Mouse EphA2 (Ecto) (Mouse, UniProt Q03145 26-538) (assay: FP competition vs Reference Compound C).
T2 construct: extracellular domain; Fluorescence polarisation assays; not shown: Fc fusion (R&D Systems 639-A2) or C-terminal polyHis (Sino Biological 50586-M08H)
T2 sequence (Q03145 26-538): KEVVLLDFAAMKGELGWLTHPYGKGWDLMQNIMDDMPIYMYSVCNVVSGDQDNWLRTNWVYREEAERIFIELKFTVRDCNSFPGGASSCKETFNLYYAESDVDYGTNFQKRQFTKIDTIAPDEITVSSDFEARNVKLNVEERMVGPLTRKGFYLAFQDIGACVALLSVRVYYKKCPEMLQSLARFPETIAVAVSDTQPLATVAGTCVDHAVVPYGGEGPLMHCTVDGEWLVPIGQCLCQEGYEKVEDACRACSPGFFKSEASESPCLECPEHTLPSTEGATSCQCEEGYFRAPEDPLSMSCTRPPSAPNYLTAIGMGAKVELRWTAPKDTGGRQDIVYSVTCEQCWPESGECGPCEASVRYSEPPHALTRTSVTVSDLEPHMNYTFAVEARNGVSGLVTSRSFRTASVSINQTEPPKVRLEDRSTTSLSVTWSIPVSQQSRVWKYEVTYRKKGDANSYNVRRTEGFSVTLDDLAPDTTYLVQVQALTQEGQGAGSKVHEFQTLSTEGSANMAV

Point of comparison: B4, Ki 75.3 nM. Against it:
- B1 — 2.2-fold higher, 164 nM
- ACPLVNPLCLHPGWSCXGQ (not fully specified; N-terminal (β-Ala)-Sar10; HArg; TATA scaffold on the 3 Cys) [Compound 90] — 1.6-fold lower, 47 nM
- CPLVNPLCLHPGWTCLHG (N-terminal Ac; C-terminal -Sar6-(D-K); TATA scaffold on the 3 Cys, also called Compound 77) [BCY6019] — 1.6-fold lower, 48.2 nM
- ACPLVNPLCLHPGWSCRGQ (linker 2-9-16 via TATA, also called Compound 87) — 4-fold lower, 18.6 nM
- B2 — 2.5-fold lower, 29.6 nM
- AXDCPLVNPLCLHPGWTC (N-terminal (β-Ala)-Sar10; HArg; TATA scaffold on the 3 Cys, also called Compound 67) [BCY6014] — within 1.5-fold, 61.7 nM
- B3 — 1.5-fold higher, 115 nM
- ARDCPLVNPLCLHPGWTCA (linker 4-11-18 via TATA; not fully specified (C-terminus)) [Compound 65] — 1.9-fold lower, 39.1 nM
- CPLVNPLCLHPGWSCRGQ (N-terminal Ac; C-terminal -Sar6-(D-K); TATA scaffold on the 3 Cys, also called Compound 91) [BCY6042] — 1.5-fold lower, 49.9 nM
- B5 — within 1.5-fold, 75.2 nM
- B6 — 2.2-fold higher, 166 nM

Each binder was assayed against T3, Human EphA2 (Human, UniProt P29317 24-537, limits assumed, biotinylated, 0.95 mol biotin/monomer) (assay: SPR, biotinylated EphA2 on streptavidin chip).
T3 construct: also called Eph receptor tyrosine kinase A2
T3 sequence (P29317 24-537 limits assumed): as the sequence (P29317 24-537) above

Point of comparison: B9, Kd 2.1 nM. Against it:
- B7 — within 1.5-fold, 1.99 nM
- B8 — within 1.5-fold, 1.64 nM

Point of comparison: B10, t1/2 11.3 min. Against it:
- B7 — 4.9-fold lower, 2.3 min
- B8 — 3.5-fold lower, 3.2 min
- B9 — 5.1-fold lower, 2.2 min

The binders below were run against T1, Human EphA2 (Ecto), C-terminal polyHis (assay: FP competition vs Reference Compound C (Study 2)).

Point of comparison: B11, Ki 7.8 nM. Against it:
- B12 — within 1.5-fold, 5.9 nM
- B13 — 1.7-fold higher, 12.9 nM
- B14 — 1.6-fold higher, 12.5 nM
- B15 — within 1.5-fold, 6.5 nM

Each binder was assayed against T2, Mouse EphA2 (Ecto) (assay: FP competition vs Reference Compound C (Study 2)).

Point of comparison: B14, Ki 40.7 nM. Against it:
- B11 — 1.6-fold higher, 66.8 nM
- B12 — within 1.5-fold, 35.9 nM
- B13 — 2-fold lower, 20.3 nM
- B15 — 1.6-fold lower, 25.3 nM
